# Test results from the supplement of paper PMC10065799, “High-throughput profiling of sequence recognition by tyrosine kinases and SH2 domains using bacterial peptide display” (eLife, 2023).
# Biological target: Jak2 (UniProt O60674)
# Assay: phosphorylation enrichment, bacterial display (enrichment ratio); higher = better substrate or ligand; peptides without Tyr show the background
# 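Further: 11-residue human phosphosite peptides and single-mutation variants displayed on the E. coli surface, counted by deep sequencing, each peptide's frequency after selection divided by its frequency in the unselected input library; frequency after pTyr selection over input frequency; kinase dosed for 20-30% of maximal phosphorylation in three min.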
# Sequence of Jak2 (O60674 whole entry, looked up): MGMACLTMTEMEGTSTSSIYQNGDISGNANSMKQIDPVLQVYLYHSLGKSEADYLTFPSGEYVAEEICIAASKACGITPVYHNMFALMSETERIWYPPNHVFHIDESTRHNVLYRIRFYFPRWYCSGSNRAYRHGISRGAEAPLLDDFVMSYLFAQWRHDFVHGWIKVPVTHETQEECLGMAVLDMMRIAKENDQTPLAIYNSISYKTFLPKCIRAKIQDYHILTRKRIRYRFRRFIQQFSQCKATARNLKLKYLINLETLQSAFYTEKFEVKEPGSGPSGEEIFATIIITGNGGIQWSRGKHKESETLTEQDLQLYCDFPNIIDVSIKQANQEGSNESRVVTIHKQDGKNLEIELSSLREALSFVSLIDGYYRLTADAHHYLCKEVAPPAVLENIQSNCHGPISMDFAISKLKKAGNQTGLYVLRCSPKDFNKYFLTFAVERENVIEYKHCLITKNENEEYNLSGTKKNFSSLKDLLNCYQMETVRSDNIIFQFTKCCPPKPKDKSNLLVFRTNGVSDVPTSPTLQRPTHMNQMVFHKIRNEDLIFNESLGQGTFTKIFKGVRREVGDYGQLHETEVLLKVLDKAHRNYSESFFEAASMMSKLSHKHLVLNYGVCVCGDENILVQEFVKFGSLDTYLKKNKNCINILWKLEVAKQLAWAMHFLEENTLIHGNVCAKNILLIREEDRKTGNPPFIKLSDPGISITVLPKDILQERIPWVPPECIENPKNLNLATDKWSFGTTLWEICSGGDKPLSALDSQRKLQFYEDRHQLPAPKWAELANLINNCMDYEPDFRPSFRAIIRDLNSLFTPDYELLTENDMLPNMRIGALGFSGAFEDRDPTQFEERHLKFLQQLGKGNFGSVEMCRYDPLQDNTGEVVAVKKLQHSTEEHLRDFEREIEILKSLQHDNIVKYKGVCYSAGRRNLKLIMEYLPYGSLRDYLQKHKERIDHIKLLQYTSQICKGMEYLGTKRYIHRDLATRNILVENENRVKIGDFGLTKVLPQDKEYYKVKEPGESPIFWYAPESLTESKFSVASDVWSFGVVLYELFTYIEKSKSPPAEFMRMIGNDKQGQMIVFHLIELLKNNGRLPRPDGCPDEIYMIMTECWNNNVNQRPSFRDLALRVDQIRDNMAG
row,Sequence,phosphorylation enrichment
1,GFRVCYTPDSR [PTPRF_Y451_Y450C_YF],1.01
2,HEGKIYEFNQV [ZNF665_Y162_YF],0.468
3,RLSELYLRRNP [CFAP410_Y68_R73P],0.659
4,RRGTRYMFSRP [RPL21_Y13],0.625
5,FIILIYAMKKK [SLCO1B1_Y645_YF],0.447
6,LIEQAYDNPHE [PRPF8_Y871],0.811
7,FKNGDYSEVMK [LCT_Y1638_N1639S],0.686
8,IIEDPYYGNDF [ACP1_Y132_S137F],1.48
9,HTLMKYTDGDQ [PUS7L_Y94_I92M],1.26
10,VIKDKYPKAHF [APTX_Y209_R213H_YF],0.534
11,AGQEDYDRLRP [CDC42_Y64],0.839
12,GTVRDYPDFSP [ANXA3_Y15],0.702
13,SGPRCYTIAAL [TTR_Y125_R124C],0.535
14,YGGRDYSLDEF [MYOF_Y1705],0.945
15,SNKLTYGTMVF [ACOX1_Y275],0.863
16,EPTPGYEVSQR [TSC2_Y1788_G1791S],0.706
17,RKLASYRSCLL [DHX37_Y1080],0.633

row,Sequence,phosphorylation enrichment
1,QDLLLYQTHSE [PKHD1_Y255_F253L],1.61
2,GGRKGYGDFSR [RECQL5_Y478],0.422
3,KVFRVYQGQQP [MUTYH_Y494],0.484
4,LKLKAYRFSIS [LCT_Y974_V971L],2.76
5,GHLFAYDWIRI [BEST1_Y227_S231R_YF],0.867
6,AFPVSYSSSSA [RET_Y687_G691S],0.527
7,FIGCIYLYLTK [GARS1_Y414_R412C],1.28
8,GFEEAYSVSKK [PAFAH1B1_Y28_F31S_YF],0.853
9,FLLRVYSIFSK [SGCE_Y38_T36R],0.804
10,VGGRIYIDDGL [PKLR_Y218],0.91
11,MDYRSYPREYG [RBM10_Y44],0.515
12,EGELRYMHSRV [ABCD1_Y281_K276E],0.86
13,AIIGIYNLRDD [CDH23_Y2949_I2950N],0.795
14,KAIMTYVFSFY [ACTN4_Y260_S262F],1.06
15,TKAEKYVNKAK [PLCG1_Y991],0.557
16,PELIDYGKLWK [ACTN1_Y193_R197W],0.761

# Biological target: EPHB1 (UniProt P54762)
# Sequence (P54762 whole entry, looked up): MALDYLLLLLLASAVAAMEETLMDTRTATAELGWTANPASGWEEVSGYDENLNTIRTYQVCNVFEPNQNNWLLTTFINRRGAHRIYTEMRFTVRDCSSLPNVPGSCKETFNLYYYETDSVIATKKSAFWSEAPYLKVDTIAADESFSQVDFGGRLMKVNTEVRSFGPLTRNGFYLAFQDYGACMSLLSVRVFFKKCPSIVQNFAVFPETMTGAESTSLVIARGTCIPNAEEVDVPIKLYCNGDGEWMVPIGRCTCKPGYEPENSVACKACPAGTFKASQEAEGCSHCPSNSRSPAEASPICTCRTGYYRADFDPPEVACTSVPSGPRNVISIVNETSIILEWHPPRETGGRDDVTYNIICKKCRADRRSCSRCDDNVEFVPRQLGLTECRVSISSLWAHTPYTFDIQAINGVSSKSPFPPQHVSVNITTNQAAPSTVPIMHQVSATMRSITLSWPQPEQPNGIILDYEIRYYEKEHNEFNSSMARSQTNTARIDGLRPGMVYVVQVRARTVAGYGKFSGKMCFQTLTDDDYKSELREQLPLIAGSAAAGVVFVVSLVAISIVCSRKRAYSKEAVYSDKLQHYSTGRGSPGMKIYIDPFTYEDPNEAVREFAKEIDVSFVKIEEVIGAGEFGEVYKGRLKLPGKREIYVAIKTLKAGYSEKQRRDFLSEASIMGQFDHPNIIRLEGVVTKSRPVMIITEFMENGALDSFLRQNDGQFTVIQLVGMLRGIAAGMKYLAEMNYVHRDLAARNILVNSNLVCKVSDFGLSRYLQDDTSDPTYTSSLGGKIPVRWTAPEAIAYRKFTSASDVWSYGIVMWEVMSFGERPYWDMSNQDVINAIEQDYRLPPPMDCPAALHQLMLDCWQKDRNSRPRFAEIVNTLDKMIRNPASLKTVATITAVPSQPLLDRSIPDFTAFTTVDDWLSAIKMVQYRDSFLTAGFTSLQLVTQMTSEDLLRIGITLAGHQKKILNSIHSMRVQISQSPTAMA
# Assay: as above
row,Sequence,phosphorylation enrichment
1,GFRVCYTPDSR [PTPRF_Y451_Y450C_YF],0.513
2,HEGKIYEFNQV [ZNF665_Y162_YF],0.883
3,RLSELYLRRNP [CFAP410_Y68_R73P],0.372
4,RRGTRYMFSRP [RPL21_Y13],0.782
5,FIILIYAMKKK [SLCO1B1_Y645_YF],0.179
6,LIEQAYDNPHE [PRPF8_Y871],0.638
7,FKNGDYSEVMK [LCT_Y1638_N1639S],0.859
8,IIEDPYYGNDF [ACP1_Y132_S137F],0.683
9,HTLMKYTDGDQ [PUS7L_Y94_I92M],1.17
10,VIKDKYPKAHF [APTX_Y209_R213H_YF],0.285
11,AGQEDYDRLRP [CDC42_Y64],0.598
12,GTVRDYPDFSP [ANXA3_Y15],0.44
13,SGPRCYTIAAL [TTR_Y125_R124C],0.41
14,YGGRDYSLDEF [MYOF_Y1705],0.594
15,SNKLTYGTMVF [ACOX1_Y275],0.505
16,EPTPGYEVSQR [TSC2_Y1788_G1791S],0.434
17,RKLASYRSCLL [DHX37_Y1080],0.321

row,Sequence,phosphorylation enrichment
1,QDLLLYQTHSE [PKHD1_Y255_F253L],1.27
2,GGRKGYGDFSR [RECQL5_Y478],0.412
3,KVFRVYQGQQP [MUTYH_Y494],0.308
4,LKLKAYRFSIS [LCT_Y974_V971L],0.883
5,GHLFAYDWIRI [BEST1_Y227_S231R_YF],0.787
6,AFPVSYSSSSA [RET_Y687_G691S],0.511
7,FIGCIYLYLTK [GARS1_Y414_R412C],0.614
8,GFEEAYSVSKK [PAFAH1B1_Y28_F31S_YF],0.355
9,FLLRVYSIFSK [SGCE_Y38_T36R],0.321
10,VGGRIYIDDGL [PKLR_Y218],0.493
11,MDYRSYPREYG [RBM10_Y44],0.337
12,EGELRYMHSRV [ABCD1_Y281_K276E],0.516
13,AIIGIYNLRDD [CDH23_Y2949_I2950N],0.481
14,KAIMTYVFSFY [ACTN4_Y260_S262F],0.63
15,TKAEKYVNKAK [PLCG1_Y991],0.264
16,PELIDYGKLWK [ACTN1_Y193_R197W],0.718

# Biological target: Fes (UniProt P07332)
# Sequence (P07332 whole entry, looked up): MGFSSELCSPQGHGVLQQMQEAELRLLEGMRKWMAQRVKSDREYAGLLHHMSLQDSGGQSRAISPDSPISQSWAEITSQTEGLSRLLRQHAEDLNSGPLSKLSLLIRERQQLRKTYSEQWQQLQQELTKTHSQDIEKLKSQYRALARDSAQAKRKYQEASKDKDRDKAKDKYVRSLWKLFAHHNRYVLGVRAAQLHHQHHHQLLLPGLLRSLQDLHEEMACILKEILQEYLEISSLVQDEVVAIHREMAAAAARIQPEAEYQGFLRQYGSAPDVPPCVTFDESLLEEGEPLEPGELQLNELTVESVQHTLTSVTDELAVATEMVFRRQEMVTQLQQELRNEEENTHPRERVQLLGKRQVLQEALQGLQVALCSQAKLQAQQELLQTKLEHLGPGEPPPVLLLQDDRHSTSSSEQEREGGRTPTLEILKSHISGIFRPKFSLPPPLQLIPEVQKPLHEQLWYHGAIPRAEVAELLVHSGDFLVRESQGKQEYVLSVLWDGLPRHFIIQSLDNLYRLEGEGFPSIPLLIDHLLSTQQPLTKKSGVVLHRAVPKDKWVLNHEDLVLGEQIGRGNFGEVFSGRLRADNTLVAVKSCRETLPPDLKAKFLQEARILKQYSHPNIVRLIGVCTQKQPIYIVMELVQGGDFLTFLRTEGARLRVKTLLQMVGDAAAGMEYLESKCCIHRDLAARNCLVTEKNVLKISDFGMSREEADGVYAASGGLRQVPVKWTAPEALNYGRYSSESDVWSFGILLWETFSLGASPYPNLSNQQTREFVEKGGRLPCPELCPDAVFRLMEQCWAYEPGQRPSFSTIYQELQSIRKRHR
# Assay: as above
row,Sequence,phosphorylation enrichment
1,GFRVCYTPDSR [PTPRF_Y451_Y450C_YF],1.34
2,HEGKIYEFNQV [ZNF665_Y162_YF],0.975
3,RLSELYLRRNP [CFAP410_Y68_R73P],0.83
4,RRGTRYMFSRP [RPL21_Y13],0.594
5,FIILIYAMKKK [SLCO1B1_Y645_YF],0.583
6,LIEQAYDNPHE [PRPF8_Y871],1.16
7,FKNGDYSEVMK [LCT_Y1638_N1639S],0.709
8,IIEDPYYGNDF [ACP1_Y132_S137F],1.48
9,HTLMKYTDGDQ [PUS7L_Y94_I92M],1.48
10,VIKDKYPKAHF [APTX_Y209_R213H_YF],0.493
11,AGQEDYDRLRP [CDC42_Y64],1.07
12,GTVRDYPDFSP [ANXA3_Y15],0.79
13,SGPRCYTIAAL [TTR_Y125_R124C],0.669
14,YGGRDYSLDEF [MYOF_Y1705],1.1
15,SNKLTYGTMVF [ACOX1_Y275],1.02
16,EPTPGYEVSQR [TSC2_Y1788_G1791S],0.888
17,RKLASYRSCLL [DHX37_Y1080],0.811

row,Sequence,phosphorylation enrichment
1,QDLLLYQTHSE [PKHD1_Y255_F253L],1.54
2,GGRKGYGDFSR [RECQL5_Y478],0.622
3,KVFRVYQGQQP [MUTYH_Y494],0.608
4,LKLKAYRFSIS [LCT_Y974_V971L],1.96
5,GHLFAYDWIRI [BEST1_Y227_S231R_YF],1.51
6,AFPVSYSSSSA [RET_Y687_G691S],0.663
7,FIGCIYLYLTK [GARS1_Y414_R412C],0.96
8,GFEEAYSVSKK [PAFAH1B1_Y28_F31S_YF],0.764
9,FLLRVYSIFSK [SGCE_Y38_T36R],1.02
10,VGGRIYIDDGL [PKLR_Y218],0.885
11,MDYRSYPREYG [RBM10_Y44],0.626
12,EGELRYMHSRV [ABCD1_Y281_K276E],0.689
13,AIIGIYNLRDD [CDH23_Y2949_I2950N],1
14,KAIMTYVFSFY [ACTN4_Y260_S262F],1.27
15,TKAEKYVNKAK [PLCG1_Y991],0.671
16,PELIDYGKLWK [ACTN1_Y193_R197W],1.26

# Biological target: FGFR3 (UniProt P22607)
# Sequence (P22607 whole entry, looked up): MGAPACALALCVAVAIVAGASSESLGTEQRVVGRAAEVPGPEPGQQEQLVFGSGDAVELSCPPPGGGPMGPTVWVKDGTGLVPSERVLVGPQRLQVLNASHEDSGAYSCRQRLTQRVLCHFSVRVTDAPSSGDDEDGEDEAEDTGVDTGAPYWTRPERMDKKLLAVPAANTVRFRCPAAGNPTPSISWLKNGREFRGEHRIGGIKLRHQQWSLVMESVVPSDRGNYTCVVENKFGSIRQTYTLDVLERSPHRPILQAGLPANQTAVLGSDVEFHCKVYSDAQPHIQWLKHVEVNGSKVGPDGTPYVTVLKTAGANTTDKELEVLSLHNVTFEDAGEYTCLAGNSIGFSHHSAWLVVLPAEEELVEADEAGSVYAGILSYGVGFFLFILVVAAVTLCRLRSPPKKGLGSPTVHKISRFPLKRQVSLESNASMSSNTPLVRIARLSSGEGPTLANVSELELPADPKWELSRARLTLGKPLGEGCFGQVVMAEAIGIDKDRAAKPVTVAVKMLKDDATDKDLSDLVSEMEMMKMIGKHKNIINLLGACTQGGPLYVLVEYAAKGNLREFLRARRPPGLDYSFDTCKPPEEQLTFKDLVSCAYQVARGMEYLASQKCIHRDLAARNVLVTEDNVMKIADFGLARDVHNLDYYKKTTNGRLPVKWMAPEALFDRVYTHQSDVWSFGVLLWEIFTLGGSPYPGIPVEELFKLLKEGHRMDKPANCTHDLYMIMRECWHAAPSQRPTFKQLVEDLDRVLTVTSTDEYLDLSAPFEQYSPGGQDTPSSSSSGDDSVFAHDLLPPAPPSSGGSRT
# Assay: as above
row,Sequence,phosphorylation enrichment
1,GFRVCYTPDSR [PTPRF_Y451_Y450C_YF],0.691
2,HEGKIYEFNQV [ZNF665_Y162_YF],0.929
3,RLSELYLRRNP [CFAP410_Y68_R73P],0.533
4,RRGTRYMFSRP [RPL21_Y13],0.554
5,FIILIYAMKKK [SLCO1B1_Y645_YF],0.377
6,LIEQAYDNPHE [PRPF8_Y871],0.695
7,FKNGDYSEVMK [LCT_Y1638_N1639S],0.468
8,IIEDPYYGNDF [ACP1_Y132_S137F],2.88
9,HTLMKYTDGDQ [PUS7L_Y94_I92M],0.897
10,VIKDKYPKAHF [APTX_Y209_R213H_YF],0.387
11,AGQEDYDRLRP [CDC42_Y64],0.69
12,GTVRDYPDFSP [ANXA3_Y15],0.587
13,SGPRCYTIAAL [TTR_Y125_R124C],0.462
14,YGGRDYSLDEF [MYOF_Y1705],0.697
15,SNKLTYGTMVF [ACOX1_Y275],0.573
16,EPTPGYEVSQR [TSC2_Y1788_G1791S],0.641
17,RKLASYRSCLL [DHX37_Y1080],0.617

row,Sequence,phosphorylation enrichment
1,QDLLLYQTHSE [PKHD1_Y255_F253L],1.28
2,GGRKGYGDFSR [RECQL5_Y478],0.363
3,KVFRVYQGQQP [MUTYH_Y494],0.494
4,LKLKAYRFSIS [LCT_Y974_V971L],1.21
5,GHLFAYDWIRI [BEST1_Y227_S231R_YF],1.22
6,AFPVSYSSSSA [RET_Y687_G691S],0.685
7,FIGCIYLYLTK [GARS1_Y414_R412C],0.79
8,GFEEAYSVSKK [PAFAH1B1_Y28_F31S_YF],0.492
9,FLLRVYSIFSK [SGCE_Y38_T36R],1.28
10,VGGRIYIDDGL [PKLR_Y218],0.539
11,MDYRSYPREYG [RBM10_Y44],0.684
12,EGELRYMHSRV [ABCD1_Y281_K276E],0.485
13,AIIGIYNLRDD [CDH23_Y2949_I2950N],0.599
14,KAIMTYVFSFY [ACTN4_Y260_S262F],0.794
15,TKAEKYVNKAK [PLCG1_Y991],0.523
16,PELIDYGKLWK [ACTN1_Y193_R197W],0.766
